Several values for one entry are separate records, joined by “and”; a condition that tells them apart may be missing. Equal values may be shown once.
Molecular target: barfin plaice type I antifreeze protein, 40-residue major isoform (bpAFP) (barfin plaice (Liposetta pinnifasciata))
Experiment: AUC; sedimentation velocity, 40,000 rpm, 4 °C, 2.5 mg bpAFP in 0.5 mL (5 mg/mL) 10 mM sodium phosphate pH 7.9, absorbance optics; monomer to tetramer (and octamer)

barfin plaice type I antifreeze protein, 40-residue major isoform (bpAFP) (peptide)
percent of loaded protein sedimenting as tetramer: 2.7% | stoichiometry N: 4 and 8

Source: paper PMC5304152
